According to the RNAGym collection of RNA variant scans (doi:10.7554/elife.80360):

B1: Hairpin Ribozyme (parent)
chain: GUCCUCUUUCACGUGCGCGUGAAAGAGAGAAGUGAACCAGAGAAACACACGUUGUGGUAUAUUACCUGGUA

Variants of: B1
Test: self-cleavage, relative activity (ratio to wild type); higher = more cleavage; co-transcriptional
Work on GUUCUCUUUCACGUGCGCGUGAAAGAGAGAAGUGAACCAGAGAAACACACGUUGUGGAAUAUUACCUGGUA yielded a self-cleavage of 0.257. GUUCUCUUGCACGUGCGCGUGAAAGAGAGAAGUGAACCAGAGAAACACACGUUGUGGUAUAUUACCUGGUA gave a self-cleavage of 0.337. With GUUCUCUUUCACGUGCGCGUGAAAGAGAGAAGUGAACCAGAGAAACACACGUUGUGGUAAAUUACCUGGUA the self-cleavage was 0.446. Work on GUUCUCUUUCACGUGCGCGUGAAAGAGAGAAGUGAACCAGACAAACACACGUUGUGGUAUAUUACCUGGUA yielded a self-cleavage of 0.218. Work on GUCAUCUUUCACGUGCGCGUGAAAGAGAGAAGUGAACCAGAGAAACACACGUUGUGGUAUAUUACAUGGUA yielded a self-cleavage of 0.146. GUCAUCUUUCACGUGCGCGUGAAAGAGAGAAGUGAACCAGAGAAACACACGUUGUGGUGUAUUACCUGGUA gave a self-cleavage of 0.145. In the case of GUUCUCAUUCACGUGCGCGUGAAAGAGAGAAGUGAACCAGAGAAACACACGUUGUGGUAUAUUACCUGGUA, the self-cleavage is reported as 0.427. For GUUCUCUUUCACGUGCGCGUGAAAGACAGAAGUGAACCAGAGAAACACACGUUGUGGUAUAUUACCUGGUA, the self-cleavage was 0.177. In the case of GUUCUCUUUCACGUGCGCGUGAAAGAAAGAAGUGAACCAGAGAAACACACGUUGUGGUAUAUUACCUGGUA, the self-cleavage is reported as 0.187. Work on GUCAUCUUUCACGUGCGCGUGUAAGAGAGAAGUGAACCAGAGAAACACACGUUGUGGUAUAUUACCUGGUA yielded a self-cleavage of 0.22. GUCAUCUUUCACGUGCGCGUGCAAGAGAGAAGUGAACCAGAGAAACACACGUUGUGGUAUAUUACCUGGUA showed a self-cleavage of 0.131. Work on GUCAUCUUUCACGUGCGCGUGGAAGAGAGAAGUGAACCAGAGAAACACACGUUGUGGUAUAUUACCUGGUA yielded a self-cleavage of 0.222. GUCAUCUUUAACGUGCGCGUGAAAGAGAGAAGUGAACCAGAGAAACACACGUUGUGGUAUAUUACCUGGUA showed a self-cleavage of 0.16. With GUCAUCUUUUACGUGCGCGUGAAAGAGAGAAGUGAACCAGAGAAACACACGUUGUGGUAUAUUACCUGGUA the self-cleavage was 0.261. Work on GUUCUCUUUCACGUGCGCGUGAAAGAGAGAAGUGAACCAGAGAAACACACGUUAUGGUAUAUUACCUGGUA yielded a self-cleavage of 0.251. For GUCAUCUUUCACGUGCGCGUGAAAGAGAGAAGUGAACCAGAGAGACACACGUUGUGGUAUAUUACCUGGUA, the self-cleavage was 0.0937. For GUCAUCUUUCACGUGCGCGUGAAAGAGAGAAGUGAACCAGAGACACACACGUUGUGGUAUAUUACCUGGUA, the self-cleavage was 0.0924. Variant GUCAUCUUUCACGUGCGCGUGAAAGAGAGAAGUGAACCAGAGAAAAACACGUUGUGGUAUAUUACCUGGUA has a self-cleavage of 0.146. GUUCGCUUUCACGUGCGCGUGAAAGAGAGAAGUGAACCAGAGAAACACACGUUGUGGUAUAUUACCUGGUA gave a self-cleavage of 0.318. For GUUCUCUUUCACGUGCGCGUGAAAGAGAGAAGUGAACCAGAGAAAUACACGUUGUGGUAUAUUACCUGGUA, the self-cleavage was 0.151. With GUCAUCUUUCACGUGCGCGUGAAAGAGGGAAGUGAACCAGAGAAACACACGUUGUGGUAUAUUACCUGGUA the self-cleavage was 0.247. GUCAUCUUUCACGUGCGCGUGAAAGAGCGAAGUGAACCAGAGAAACACACGUUGUGGUAUAUUACCUGGUA showed a self-cleavage of 0.0846. For GUUCUCUUUCACGUGCGCGUGAAAGAGACAAGUGAACCAGAGAAACACACGUUGUGGUAUAUUACCUGGUA, the self-cleavage was 0.106. With GUUCUCUUUCACGUGCGCGUGAAAGAGAUAAGUGAACCAGAGAAACACACGUUGUGGUAUAUUACCUGGUA the self-cleavage was 0.117. GUCAUCUUUCACGUGCGCGUGAAAGAGAGAAGUGAACCAGAGAAACACACGUUGUGGUAUAUUACCUGGUA showed a self-cleavage of 0.218. Work on GUUCUCUUUCACGUGCGCGUGAAAGAGAGAAGUCAACCAGAGAAACACACGUUGUGGUAUAUUACCUGGUA yielded a self-cleavage of 1.03. GUUCUCUUUCACGUGCGCGUGAAAGAGAGAAGUGAACAAGAGAAACACACGUUGUGGUAUAUUACCUGGUA showed a self-cleavage of 0.106. In the case of GUUCUCUUUCACGUGCGCGUGAAAGAGAGAAGUGAACCAGAGAAACACACGUUGUGGUAUAUUACCUGAUA, the self-cleavage is reported as 0.16. Variant GUUCUCUUUCACGUCCGCGUGAAAGAGAGAAGUGAACCAGAGAAACACACGUUGUGGUAUAUUACCUGGUA has a self-cleavage of 0.727. With GUCAUCUUUCACGUGCCCGUGAAAGAGAGAAGUGAACCAGAGAAACACACGUUGUGGUAUAUUACCUGGUA the self-cleavage was 0.225. With GUCAUCUUUCACGUGGGCGUGAAAGAGAGAAGUGAACCAGAGAAACACACGUUGUGGUAUAUUACCUGGUA the self-cleavage was 0.236. GUCAUCUUUCACGUGCGCGUGAAAGAGAGAAGUGAACCCGAGAAACACACGUUGUGGUAUAUUACCUGGUA showed a self-cleavage of 0.166. Work on GUCAUCUUUCACGUGCGCGUGAAAGAGAGAAGUGAAACAGAGAAACACACGUUGUGGUAUAUUACCUGGUA yielded a self-cleavage of 0.159. With GUCAUCUUUCACGUGCGCGUGAAAGAGAGAAGUGAAGCAGAGAAACACACGUUGUGGUAUAUUACCUGGUA the self-cleavage was 0.0599. With GUCAUCUUUCACGUGCGCGUGAACGAGAGAAGUGAACCAGAGAAACACACGUUGUGGUAUAUUACCUGGUA the self-cleavage was 0.137. Work on GUUCUCUUUCACGUGCGCGUGAAAGAGAGAAGUGAACCAGAGAAACACACGUGGUGGUAUAUUACCUGGUA yielded a self-cleavage of 0.517. GUCAUCUUUCACGUGCGCGUGAAAGAGAGAAGUGAACCAGAGAAACUCACGUUGUGGUAUAUUACCUGGUA gave a self-cleavage of 0.0985. With GUCAUCUUUCACGUGCGCGUGAAAGAGAGAAGUGAACCAGAGAAACACACGUUGUGGUAUAUUACCUGGUG the self-cleavage was 0.346.
